Data from PMC8688574 (The Journal of Biological Chemistry, 2021).

Key:
[1] = target: T1, catalytic core of human ATL1 WT / N417ins (Homo sapiens, UniProt Q8WXF7); assay: limited proteolysis (proteinase K) protection; format: binding; settings: 2 mM GDP; MgCl2, pH 7.5; on ice
T1 construct: catalytic core (G + middle domains), WT residues 1-449 (N417ins 1-450), C-terminal His10 tag kept, E. coli BL21(DE3)
T1 sequence (Q8WXF7 1-449): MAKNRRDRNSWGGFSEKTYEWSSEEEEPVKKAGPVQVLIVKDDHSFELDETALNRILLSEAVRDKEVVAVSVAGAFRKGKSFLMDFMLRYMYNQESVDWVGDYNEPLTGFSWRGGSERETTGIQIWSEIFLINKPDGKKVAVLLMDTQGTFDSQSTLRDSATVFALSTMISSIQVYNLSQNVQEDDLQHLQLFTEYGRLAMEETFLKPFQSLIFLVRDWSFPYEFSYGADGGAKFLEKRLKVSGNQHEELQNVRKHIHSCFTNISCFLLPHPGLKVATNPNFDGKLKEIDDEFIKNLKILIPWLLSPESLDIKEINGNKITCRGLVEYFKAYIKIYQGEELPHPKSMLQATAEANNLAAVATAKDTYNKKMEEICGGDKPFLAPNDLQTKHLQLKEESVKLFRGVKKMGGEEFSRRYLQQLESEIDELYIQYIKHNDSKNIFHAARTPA

[2] = target: T2, catalytic core of human ATL1 WT / N417ins (Homo sapiens, UniProt Q8WXF7); assay: SEC-MALS, nucleotide-dependent dimerization; format: binding; settings: 2 mM GppNHp; 4 mM MgCl2, pH 7.5; 50 μM protein
T2 construct: catalytic core (G + middle domains), WT residues 1-449 (N417ins 1-450), C-terminal His10 tag kept, E. coli BL21(DE3)
T2 sequence (Q8WXF7 with tags, fused parts or gaps INS416N): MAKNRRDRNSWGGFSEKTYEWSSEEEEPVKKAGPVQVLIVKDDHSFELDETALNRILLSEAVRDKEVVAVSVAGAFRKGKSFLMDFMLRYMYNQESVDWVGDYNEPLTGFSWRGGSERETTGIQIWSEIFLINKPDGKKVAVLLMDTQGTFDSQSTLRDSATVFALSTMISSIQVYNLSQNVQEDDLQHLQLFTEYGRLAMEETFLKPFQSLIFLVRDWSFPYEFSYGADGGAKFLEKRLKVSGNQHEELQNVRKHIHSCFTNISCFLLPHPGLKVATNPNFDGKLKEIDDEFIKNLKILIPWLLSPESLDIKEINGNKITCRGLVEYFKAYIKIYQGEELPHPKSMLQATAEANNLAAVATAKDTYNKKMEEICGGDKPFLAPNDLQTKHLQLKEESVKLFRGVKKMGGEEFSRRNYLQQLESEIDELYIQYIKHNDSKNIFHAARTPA

[3] = target: T1, catalytic core of human ATL1 WT / N417ins; assay: SEC-MALS, nucleotide-dependent dimerization; format: binding; settings: 2 mM GppNHp; 4 mM MgCl2, pH 7.5; 50 μM protein; remark: listed apart in the source
[4] = target: ATL1 N417ins catalytic core, G domain FRET construct; assay: intermolecular FRET (G domain FRET); settings: equilibrated for 1 h before measurement, read off a plot
[5] = target: ATL1 N417ins catalytic core C375A K400C, labelled on the middle domain with AlexaFluor-488 or AlexaFluor-647; assay: intermolecular FRET (middle domain FRET); settings: equilibrated for 1 h before measurement, read off a plot
[6] = target: the molecule itself; assay: SEC-MALS; 50 μM protein loaded, preincubated with 2 mM GppNHp; Superdex Increase 200 10/300 GL; 25 mM Tris-HCl pH 7.5, 100 mM NaCl, 2 mM EGTA, 4 mM MgCl2
[7] = apo (no nucleotide), parent: est. 0.0083

Molecule: Nc1nc2c(ncn2[C@@H]2O[C@H](COP(=O)(O)OP(=O)(O)O)[C@@H](O)[C@H]2O)c(=O)[nH]1 [GDP]
- limited proteolysis (proteinase K) protection [1]: when bound to GDP, the WT protein is largely protected from degradation

Molecule: Nc1nc2c(ncn2[C@@H]2O[C@H](COP(=O)(O)OP(=O)(O)NP(=O)(O)O)[C@@H](O)[C@H]2O)c(=O)[nH]1 [GppNHp]
- SEC-MALS, nucleotide-dependent dimerization [2]: Only a minor fraction of the mutant protein eluted as a monomer upon incubation with GppNHp
- SEC-MALS, nucleotide-dependent dimerization [3]: dimerized in the presence of GppNHp and GDP•AlF4^−

Molecule: ATL1 WT catalytic core, G domain FRET construct N417ins
- response ([4]; GDP, parent: est. 0.014): 0.011
- response ([4]; GDP•AlF4-, parent: est. 0.076): 0.078
- response [4, 7]: 0.009

Molecule: ATL1 WT catalytic core, middle domain FRET construct N417ins
- response ([5]; GDP, parent: est. 0.0098): 0.011
- response ([5]; GDP•AlF4-, parent: est. 0.061): 0.066
- response [5, 7]: 0.009

B1: human ATL1 N417ins catalytic core (residues 1–450) (domain or fragment, UniProt Q8WXF7-1 1-450, looked up)
chain: MAKNRRDRNSWGGFSEKTYEWSSEEEEPVKKAGPVQVLIVKDDHSFELDETALNRILLSEAVRDKEVVAVSVAGAFRKGKSFLMDFMLRYMYNQESVDWVGDYNEPLTGFSWRGGSERETTGIQIWSEIFLINKPDGKKVAVLLMDTQGTFDSQSTLRDSATVFALSTMISSIQVYNLSQNVQEDDLQHLQLFTEYGRLAMEETFLKPFQSLIFLVRDWSFPYEFSYGADGGAKFLEKRLKVSGNQHEELQNVRKHIHSCFTNISCFLLPHPGLKVATNPNFDGKLKEIDDEFIKNLKILIPWLLSPESLDIKEINGNKITCRGLVEYFKAYIKIYQGEELPHPKSMLQATAEANNLAAVATAKDTYNKKMEEICGGDKPFLAPNDLQTKHLQLKEESVKLFRGVKKMGGEEFSRRNYLQQLESEIDELYIQYIKHNDSKNIFHAARTPAT
notes: atlastin-1 (ATL1/SPG3A), human, catalytic core with the patient's in-frame insertion of an asparagine between R416 and Y417; residues 1-450. numbers count on: the mutant protein with the extra residue (1-449 of the wild type plus N417); pET21 vector; construct for enzyme assays, SEC-MALS and tethering; Theoretical monomer mass 52.9 kDa; also called N417ins mutant protein; …
- stoichiometry N [6]: 2

B2: human ATL1 WT catalytic core (residues 1–449) (domain or fragment, UniProt Q8WXF7-1 1-449, looked up)
chain: MAKNRRDRNSWGGFSEKTYEWSSEEEEPVKKAGPVQVLIVKDDHSFELDETALNRILLSEAVRDKEVVAVSVAGAFRKGKSFLMDFMLRYMYNQESVDWVGDYNEPLTGFSWRGGSERETTGIQIWSEIFLINKPDGKKVAVLLMDTQGTFDSQSTLRDSATVFALSTMISSIQVYNLSQNVQEDDLQHLQLFTEYGRLAMEETFLKPFQSLIFLVRDWSFPYEFSYGADGGAKFLEKRLKVSGNQHEELQNVRKHIHSCFTNISCFLLPHPGLKVATNPNFDGKLKEIDDEFIKNLKILIPWLLSPESLDIKEINGNKITCRGLVEYFKAYIKIYQGEELPHPKSMLQATAEANNLAAVATAKDTYNKKMEEICGGDKPFLAPNDLQTKHLQLKEESVKLFRGVKKMGGEEFSRRYLQQLESEIDELYIQYIKHNDSKNIFHAARTPA
notes: atlastin-1 (ATL1/SPG3A), human, catalytic core of G and middle domains, residues 1-449; pET21 vector; Monomer without nucleotide or with GDP, dimer with GppNHp or GDP•AlF4-; Theoretical monomer mass 52.8 kDa; also called atlastin-1; SPG3A; source: E. coli BL21(DE3), purified (Ni-NTA, desalting, S200 gel filtration); not shown: His10, C-terminal, kept
- stoichiometry N [6]: 2
